From patent US20080044413A1 (published 2008)
Where a chain is given by its changes, count along the chain named.

Tests used:
[1] = biological target: T1, Human EphA2-Fc fusion protein (human, UniProt P29317 24-537); assay: SPR (Biacore 3000), soluble IgG on immobilized EphA2-Fc
T1 construct: extracellular domain; Expressed in HEK 293 cells; Biotinylated in the capture ELISAs; also called soluble EphA2 Fc fusion protein; not shown: Fc portion of a human IgG1

human EphA2 [2] = biological target: T2, human EphA2 (human, UniProt P29317 24-976); assay: flow cytometry on A549 cells, antibody 10 µg/ml, PE anti-mouse Fc gamma; control: irrelevant antibody of the same isotype [A]
T2 construct: whole, on cells; also called EphA2 receptor
Procedure: FIGS. 10A-10B: Flow cytometric binding analysis of anti-EphA2 parental antibodies. EphA2 expressing A549 cells (human lung carcinoma cell line) (A), and MDA-MB-231 cells (human breast cancer) (B) were used. Cells (200,000) were incubated with 10 μg/ml of the respective antibody for 30 min on ice. The cells were subsequently washed twice in PBS. The binding of the primary antibody was detected via an phycoerythrin-conjugated murine Fc-gamma specific antibody (Dianova, order no. 115-116-071) diluted 1:100 in 50 μl PBS with 2% FCS. As negative control, an irrelevant antibody with the same isotype was used (thin line). Cells were analyzed by flow cytometry on a FACS-Calibur (Becton Dickinson, Heidelberg). […] The binding capabilities of the three different antibodies are shown in a histogram overlay (4th peak from left=B322 antibody; 3rd peak from left=EA2 antibody; 2nd peak from left=EA5 antibody; far left peak—control).
A flow cytometric analysis was performed to estimate the binding strength of the anti-EphA2 parental monoclonal antibodies […], EA2 and EA5 (FIG. 10). […] The binding of the primary antibody was detected via an phycoerythrin conjugated murine Fc-gamma specific antibody (Dianova, order no. 115-116-071) diluted 1:100 in […] PBS with 2% FCS. […] Cells were analyzed by flow cytometry on a FACS-Calibur (Becton Dickinson, Heidelberg).

[3] = biological target: T1, Human EphA2-Fc fusion protein; assay: SPR (BIAcore 3000), KD against that of 4H5 scFv
Procedure: (§1) 2A4, 2E7 and 12E2 as well as parental EA2 scFv and humanized 4H5 scFv were induced for expression in E. coli in a 1 L culture volume. The supernatants containing soluble, secreted scFv fragments were spun to remove cellular debris then passed over an anti-FLAG column (Sigma) to purify and isolate the variant proteins. The purified affinity optimized variants were analyzed by surface plasmon resonance detection using a BIAcore 3000 instrument (Pharmacia Biosensor, Uppsala, Sweden). […] For affinity measurement results, see the table in section 6.6, infra.

[4] = biological target: T1, Human EphA2-Fc fusion protein; assay: SPR (BIAcore 3000), purified monomeric scFv, human EphA2
Procedure: as §1

cynomolgus EphA2 = biological target: T3, cynomolgus EphA2 (cynomolgus, UniProt Q1KL86 24-976); assay: flow cytometry on cynomolgus EphA2 transfected CHO cells, antibody 10 µg/ml, AlexaFluor 488 anti-mouse or anti-human IgG (H+L)
T3 construct: whole, on cells; also called cynomolgus EphA2 expressed on transfected CHO cells
Procedure: Subconfluent monolayers of SW480 colon carcinoma or cynomolgus EphA2 transfected CHO cells were quickly trypsinized, washed, counted, plated into 96-well round bottom plates, and stained with 10 μg/ml of a negative control antibody (R347), the anti-human EphA2 murine antibody, EA2 (Coffman 2003), or humanized antibodies, 3F2 and 4H5. Cells were resuspended in AlexaFluor 488 anti-mouse or anti-human IgG H+L (Invitrogen) and then analyzed by flow cytometry using a FACSCalibur (Becton Dickinson).

human EphA2 [5] = biological target: T2, human EphA2; assay: immunofluorescence microscopy of fixed monolayers of MCF-10A and MDA-MB-231 cells
Procedure: Monolayers of MCF-10A or MDA-MB-231 cells were cultured atop glass coverslips for at least 24 h at 37° C. before staining. Cell monolayers were fixed in 4% paraformaldehyde (2 min, 25° C.) before incubation with primary antibody (clone G5 (negative control), EA5, EA2, 3F2, or 4H5) for 30 min followed by subsequent staining with AlexaFluor 488-conjugated goat anti-mouse IgG or AlexaFluor 488-conjugated goat anti-human IgG (The Jackson Laboratory). Cells were fixed for analyses by immunofluorescence microscopy. […] The amino acid sequence of the VL and VH domains of the G5 antibody are depicted in FIG. 42.

T3 sequence (Q1KL86 24-976): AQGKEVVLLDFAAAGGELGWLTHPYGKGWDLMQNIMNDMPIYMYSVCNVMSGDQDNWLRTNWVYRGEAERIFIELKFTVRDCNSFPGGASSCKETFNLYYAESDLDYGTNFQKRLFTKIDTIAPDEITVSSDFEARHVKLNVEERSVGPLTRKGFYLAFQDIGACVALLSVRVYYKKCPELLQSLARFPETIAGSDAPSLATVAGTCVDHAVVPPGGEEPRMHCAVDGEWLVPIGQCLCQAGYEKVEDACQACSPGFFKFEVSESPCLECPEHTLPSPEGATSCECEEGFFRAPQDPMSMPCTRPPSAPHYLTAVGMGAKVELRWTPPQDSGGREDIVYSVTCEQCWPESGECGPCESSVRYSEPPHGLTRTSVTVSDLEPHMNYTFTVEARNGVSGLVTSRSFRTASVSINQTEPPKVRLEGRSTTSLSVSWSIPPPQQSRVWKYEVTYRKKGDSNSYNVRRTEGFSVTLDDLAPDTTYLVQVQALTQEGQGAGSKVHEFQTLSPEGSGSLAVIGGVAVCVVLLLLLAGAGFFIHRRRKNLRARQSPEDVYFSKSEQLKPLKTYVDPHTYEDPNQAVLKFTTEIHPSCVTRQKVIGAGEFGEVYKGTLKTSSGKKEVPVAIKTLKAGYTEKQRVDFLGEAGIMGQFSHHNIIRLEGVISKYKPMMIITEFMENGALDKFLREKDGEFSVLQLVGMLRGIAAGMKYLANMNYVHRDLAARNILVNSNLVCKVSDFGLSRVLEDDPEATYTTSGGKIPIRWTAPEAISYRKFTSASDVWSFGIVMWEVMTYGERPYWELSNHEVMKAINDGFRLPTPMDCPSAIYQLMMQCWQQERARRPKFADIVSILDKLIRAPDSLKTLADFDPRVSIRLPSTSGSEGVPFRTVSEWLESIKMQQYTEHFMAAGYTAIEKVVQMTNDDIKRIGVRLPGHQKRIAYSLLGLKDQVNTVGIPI

B1: Chimaeric B 233 (antibody, V domains shown)
VH: EVKLVESGGGLVQPGGSLSLSCAASGFTFTDYSMNWVRQPPGKALEWLGFIRNKANDYTTEYSASVKGRFTISRDNSQSILYLQMNALRAEDSATYYCVRYPRYHAMDSWGQGTSVTVSS
VL: DIVLTQSPATLSVTPGDSVNLSCRASQSISNNLHWYQQKSHESPRLLIKYVFQSISGIPSRFSGSGSGTDFTLSINSVETEDFGMYFCQQSNSWPLTFGAGTKLELK
notes: Soluble IgG with the B233 variable regions; also called chimaeric mAb B233; chimeric B233
[1]
  Kd: 0.3 nM
  koff: 8e-05 s⁻¹
  kon: 240000 M⁻¹ s⁻¹

B2: anti-EphA2 antibody EA5 (antibody, V domains shown)
VH: EVQLQQSGPELVKTGASVKISCKASGYSFTGYYMHWVKQSHGKSLEWIGYISCYNGVTSYNQKFKGKATFTVDTSSSTAYMQFNSLTSEDSAVYYCARSHAMDYWGQGTSVTVSS
VL: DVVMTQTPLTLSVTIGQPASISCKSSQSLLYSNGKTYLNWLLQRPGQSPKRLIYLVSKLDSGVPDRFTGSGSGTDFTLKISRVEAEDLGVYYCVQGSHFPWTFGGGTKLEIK
notes: Murine monoclonal antibody; Hybridoma ATCC PTA-4381; also called mAb EA5
Human EphA2 [2]
  binding result: binds

B3: VH VL 2A4 scFv (scFv)
scFv: QVQLLESGGGLVQPGGSLRLSCAASGFTFSSYTMSWVRQAPGQALEWMGTISSRGTYTYYPDSVKGRFTISRDNAKNSLYLQMNSLRAEDTAVYYCAREAIFTHWGRGTLVTVSSGGGGSGGGGSGGGGSDIQLTQSPSSLSASVGDRVTITCKASQDINNYHSWYQQKPGQAPRLLIYRANRLVDGVPDRFSGSGYGTDFTLTINNIESEDAAYYFCLKYNVFPYTFGQGTKVEIK
notes: FLAG and His tags as for 4H5 scFv
[3]
  Fold Difference (vs 4H5): 32 fold
[4]
  Kd: 5.7 nM
  koff: 0.0037 s⁻¹
  kon: 650000 M⁻¹ s⁻¹

B4: VH VL 2E7 scFv (scFv)
scFv: B3 scFv with H163G, V223R
notes: as for B3
[3]
  Fold Difference (vs 4H5): 25 fold
[4]
  Kd: 7.3 nM
  koff: 0.0041 s⁻¹
  kon: 560000 M⁻¹ s⁻¹

B5: VH VL 12E2 scFv (scFv)
scFv: B3 scFv with H104Y, H163L, V185F, N222D, V223R
notes: as for B3
[3]
  Fold Difference (vs 4H5): 23 fold
[4]
  Kd: 7.8 nM
  koff: 0.0041 s⁻¹
  kon: 520000 M⁻¹ s⁻¹

B6: 4H5 VH-VL scFv humanized clone (scFv)
scFv: B3 scFv with R54G, H104Y, H163L, N222D
notes: Expressed with a C-terminal FLAG tag and His tag; also called 4H5 scFv; scFv 4H5
[3]
  Fold Difference (vs 4H5): 1 fold
[4]
  Kd: 180 nM
  koff: 0.018 s⁻¹
  kon: 100000 M⁻¹ s⁻¹

B7: Affinity optimized 3F2 (antibody, human IgG1, V domains shown)
VH: EVQLVESGGGVVRPGGSLRLSCAASGFTVSDYSMNWVRQAPGKGLEWIGFIRNKANAYTTEYSASVKGRFTISRDDSKNTLYLQMNSLKTEDTAVYYCTTYPRYHAMDSWGQGTMVTVSS
VL: AIQLTQSPSSLSASVGDRVTITCRASQSISNNLHWYLQKPGQSPQLLIYYGFQSISGVPSRFSGSGSGTDFTLTISSLQPEDFATYYCQQANSWPLTFGGGTKLEIK
notes: human IgG1 with human kappa chain
Cynomolgus EphA2
  binding result: binds
[1]
  Kd: 0.671 nM
  koff: 0.000127 s⁻¹
  kon: 189000 M⁻¹ s⁻¹

B8: G5 (antibody, V domains shown)
VH: QMQLVQSGPEVKKPGTSVKVSCKASGFTFTDYSMNWVRQARGQRLEWIGFIRNKANDYTTEYSASVKGRVTITRDMSTSTAYMELSSLRSEDTAVYYCARYPRYHAMDSWGQGTSVTVSS
VL: DIQMTQSPSSLSASVGDRVTITCRASQSISNNLHWYQQKPGKAPKLLIKYVFQSISGVPSRFSGSGSGTDFTFTISSLQPEDFATYYCQQSNSWPLTFGGGTKVEIK
notes: also called clone G5; anti-EphA2 antibody G5
Human EphA2 [5]
  binding result: binds

B9: parental anti-EphA2 scFv EA2 (scFv)
scFv: DVKLVESGGGLVKPGGSLKLSCAASGFTFSSYTMSWVRQTPEKRLEWVATISSGGTYTYYPDSVKGRFTISRDNAKNTLYLQMSSLKSEDTAMYYCTREAIFTYWGQGTLVTVSAGGGGSGGGGSGGGGSDIKMTQSPSSMYASLGERVTITCKASQDINNYLSWFQQKPGKSPKTLIYRANRLVDGVPSRFSGSGSGQDYSLTISSLEYEDMGIYYCLKYDEFPYTFGGGTKLEIK
notes: The murine EA2 variable regions were cloned in the same manner as the 4H5 scFv (VH, linker, VL, FLAG, His); also called EA2 scFv; not shown: C-terminal FLAG tag and His tag
[3]
  Fold Difference (vs 4H5): -4.8 fold
[4]
  Kd: 870 nM
  koff: 0.03 s⁻¹
  kon: 34000 M⁻¹ s⁻¹

B10: anti-EphA2 antibody EA2 (antibody, V domains shown)
VH: DVKLVESGGGLVKPGGSLKLSCAASGFTFSSYTMSWVRQTPEKRLEWVATISSGGTYTYYPDSVKGRFTISRDNAKNTLYLQMSSLKSEDTAMYYCTREAIFTYWGQGTLVTVSA
VL: DIKMTQSPSSMYASLGERVTITCKASQDINNYLSWFQQKPGKSPKTLIYRANRLVDGVPSRFSGSGSGQDYSLTISSLEYEDMGIYYCLKYDEFPYTFGGGTKLEIK
notes: Murine monoclonal antibody; Hybridoma ATCC PTA-4380; also called mAb EA2
Cynomolgus EphA2
  binding result: binds
Human EphA2 [2]
  binding result: binds
